Data: paper PMC8429771

Tests used:
[1] = molecular target: Native bovine (β, γ)-actin, P60712;P63258; assay: single molecule TIRFM assay (linear fit of kobs against CP concentration); conditions: Cy5-UTRN261N (10 nM), profilin-actin (2 μM), TMR-CP
[2] = molecular target: Native bovine (β, γ)-actin, P60712;P63258; assay: TIRFM single-filament re-growth assay after CP washout (mono-exponential fit); conditions: Cy5-UTRN261N (10 nM), profilin-actin (2 μM), myotrophin/V1 (20 nM) after CP washout
[3] = molecular target: Native bovine (β, γ)-actin, P60712;P63258; assay: TIRFM (KD calculated from koff and kon)
Actin (Homo sapiens) = Actin (Homo sapiens) (UniProt P60709); conditions: cited from earlier work

Row | Substance | kon [1] | koff [2] | Kd [3] | Kd (Actin (Homo sapiens))
1 | Murine heterodimeric capping protein (α1, β2), wildtype (from UniProt P47753;P47757-2) αY277V | 8.68e+06 M⁻¹ s⁻¹ | 2.6 s^-1·10^-3 | 0.3 nM | 
2 | Profilin (from UniProt P07737) |  |  |  | 19 nM
